In PMC8223476 (2021):

Target: Biotinylated SARS-CoV-2 (COVID-19) S protein RBD, His, Avitag (bRBD) (SARS-CoV-2, UniProt P0DTC2, biotinylated)
Assay: flow cytometry on cells

B1: C119 (IgG) (antibody, V domains shown)
VH: QVQLVQSGAEVKKPGASVKVSCKASGYTFTSYYMHWVRQAPGQGLEWMGIINPSGGSTSYAQKLQGRVTMTRDTSTSTVYMELSSLRSEDTAVYYCARANHETTMDTYYYYYYMDVWGKGTTVTVSS
VL: QSALTQPASVSGSPGQSITISCTGTSSDVGGYKYVSWYQRHPGKAPKLMIYDVSNRPSGVSNRFSGSKSGNTASLTISGLQAEDEADYYCSSYTSSSTSVVFGGGTQLTVL
  binding result: binds
